From paper PMC12656920

Experiments:
PV-3C main protease [1] = biological target: T1, PV-3C main protease (Poliovirus, UniProt P03300 1566-1748); test: NMR (SOFAST-HMQC CSP); 3C:RNA 1:0.5; conditions: protein: recombinant; tags: SUMO tag cleaved by ULP-1; 15N-labeled for NMR
PV-3C main protease [2] = biological target: T1, PV-3C main protease; test: NMR (SOFAST-HMQC peak loss); conditions: protein: recombinant; tags: SUMO tag cleaved by ULP-1; 15N-labeled for NMR

T1 sequence (P03300 1566-1748): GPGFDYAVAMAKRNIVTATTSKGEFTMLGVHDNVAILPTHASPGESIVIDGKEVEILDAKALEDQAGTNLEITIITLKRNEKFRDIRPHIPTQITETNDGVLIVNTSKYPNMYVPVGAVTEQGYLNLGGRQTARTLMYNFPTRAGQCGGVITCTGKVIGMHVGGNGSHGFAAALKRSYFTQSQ

B1: RNA-1 (ssRNA)
RNA: GGCGGCGUACUCCGG
B1: binds (PV-3C main protease [1]).

B2: RNA-2 (ssRNA)
RNA: CAUACUGUUGUAGGGGAA
B2: binds (PV-3C main protease [2]).
